From publication PMC9825174 come the findings set out here.

Assay in all cases: EMSA
Data set [1] addresses UV-DDB (DDB1-DDB2 heterodimer) (UniProt Q16531+Q92466). The settings on record: EMSA: 20 mM HEPES pH 7.5, 150 mM NaCl, 2 mM DTT (5 mM in AAG native PAGE), 5% glycerol, 0.5 mg/ml BSA, 8 nM DNA, room temperature 20-30 min, 5% native gel at ….
In data set [2] the target is AAG D80 EQ (catalytically dead) E125Q (UniProt P29372). The settings on record: 60 nM AAG D80 EQ, 8 nM DNA, text says THF, legend says ϵdA37, N20 of strand 1 = 1,N6-ethenoadenine (opposite T), EMSA: 20 mM HEPES pH 7.5, 150 mM NaCl, 2 mM DTT (5 mM in AAG native PAGE), 5% glycerol, 0.5 mg/ml BSA, room temperature 20-30 min, 5% native gel at ….
A further data set addresses AAG WT (MPG) (UniProt P29372). The settings on record: 60 nM AAG, 8 nM DNA, N20 of strand 1 = tetrahydrofuran abasic analogue (opposite T), EMSA: 20 mM HEPES pH 7.5, 150 mM NaCl, 2 mM DTT (5 mM in AAG native PAGE), 5% glycerol, 0.5 mg/ml BSA, room temperature 20-30 min, 5% native gel at ….

Where only a bound is given, the exact number is not on record here.

UniProt Q16531, sequence (Q16531 whole entry, chain 1 of 2): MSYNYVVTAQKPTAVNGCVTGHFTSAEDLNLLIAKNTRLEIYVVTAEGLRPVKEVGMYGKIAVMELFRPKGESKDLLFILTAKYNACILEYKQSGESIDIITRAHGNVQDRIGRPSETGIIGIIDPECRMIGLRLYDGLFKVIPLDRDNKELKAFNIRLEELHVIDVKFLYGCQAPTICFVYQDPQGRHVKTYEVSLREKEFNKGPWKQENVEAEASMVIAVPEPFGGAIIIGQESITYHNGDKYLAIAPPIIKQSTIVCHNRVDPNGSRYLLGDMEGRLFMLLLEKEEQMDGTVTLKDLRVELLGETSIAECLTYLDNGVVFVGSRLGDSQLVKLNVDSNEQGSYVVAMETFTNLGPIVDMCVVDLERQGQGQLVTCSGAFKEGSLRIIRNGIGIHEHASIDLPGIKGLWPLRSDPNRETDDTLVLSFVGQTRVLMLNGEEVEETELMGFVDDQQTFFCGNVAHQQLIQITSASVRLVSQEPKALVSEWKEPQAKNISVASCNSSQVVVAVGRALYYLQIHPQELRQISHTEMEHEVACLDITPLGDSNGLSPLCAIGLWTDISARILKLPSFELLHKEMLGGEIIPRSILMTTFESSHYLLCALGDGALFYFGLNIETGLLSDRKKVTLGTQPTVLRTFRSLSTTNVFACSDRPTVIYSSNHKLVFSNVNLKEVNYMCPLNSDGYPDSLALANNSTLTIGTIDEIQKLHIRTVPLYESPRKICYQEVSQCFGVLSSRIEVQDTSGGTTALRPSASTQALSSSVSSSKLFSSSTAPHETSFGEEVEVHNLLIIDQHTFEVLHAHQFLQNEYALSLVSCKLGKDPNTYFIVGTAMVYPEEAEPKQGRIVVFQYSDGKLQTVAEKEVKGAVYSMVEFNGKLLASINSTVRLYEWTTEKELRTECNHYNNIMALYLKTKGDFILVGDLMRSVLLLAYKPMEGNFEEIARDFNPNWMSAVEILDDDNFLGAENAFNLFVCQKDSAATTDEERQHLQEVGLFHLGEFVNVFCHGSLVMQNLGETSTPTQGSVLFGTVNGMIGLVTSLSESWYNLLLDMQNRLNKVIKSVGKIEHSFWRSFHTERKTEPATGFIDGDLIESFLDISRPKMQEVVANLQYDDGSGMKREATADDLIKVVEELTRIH
UniProt Q16531, sequence (Q92466 whole entry, chain 2 of 2): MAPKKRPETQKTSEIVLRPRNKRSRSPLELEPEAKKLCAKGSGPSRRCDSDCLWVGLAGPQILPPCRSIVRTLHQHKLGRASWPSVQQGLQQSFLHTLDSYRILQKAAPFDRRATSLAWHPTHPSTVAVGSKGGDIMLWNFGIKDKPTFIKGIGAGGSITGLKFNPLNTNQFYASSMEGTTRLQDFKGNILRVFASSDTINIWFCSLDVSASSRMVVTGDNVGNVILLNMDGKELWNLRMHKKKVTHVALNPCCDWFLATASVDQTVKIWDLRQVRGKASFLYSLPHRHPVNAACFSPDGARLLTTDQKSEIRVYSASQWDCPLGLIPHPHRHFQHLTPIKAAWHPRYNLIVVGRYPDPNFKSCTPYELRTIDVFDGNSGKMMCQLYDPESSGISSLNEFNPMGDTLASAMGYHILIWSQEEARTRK

As to “CCGAGTCATTCCTGCAGCGNGTCCATGGGAGTCAAAT / ATTTGACTCCCATGGACTCGCTGCAGGAATGACTCGG [ϵdA37 (ϵA:T)]”, the Kd in data set [1] (N20 of strand 1 = 1,N6-ethenoadenine (opposite T)) stood at 6 nM. Also, in data set [2], the binding signal was above 85 % DNA bound. The substance “CCGAGTCATTCCTGCAGCGNGTCCATGGGAGTCAAAT / ATTTGACTCCCATGGACTCGCTGCAGGAATGACTCGG [Hx37 (Hx:T)]” came in with a Kd in data set [1] (N20 of strand 1 = hypoxanthine (deoxyinosine, opposite T)) of 8.6 nM. In data set [1] (no Mg2+, varies with preparation (32-42 nM)), undamaged 37 bp duplex (UD) displayed a Kd of 31.8 nM.

In the data set with AAG WT (MPG), “CCGAGTCATTCCTGCAGCGNGTCCATGGGAGTCAAAT / ATTTGACTCCCATGGACTCGCTGCAGGAATGACTCGG [THF37]” returned a binding signal above 85 % DNA bound. This substance returned a Kd in data set [1] (N20 of strand 1 = tetrahydrofuran abasic analogue (opposite T)) of 1.8 nM.
